Literature values in article PMC3343272.

Target: Nonmuscle myosin IIA M32 1907-1938 (Homo sapiens) (UniProt P35579)
Experiment: kinetic assay

Sequence of S100A4 (P26447 2-101): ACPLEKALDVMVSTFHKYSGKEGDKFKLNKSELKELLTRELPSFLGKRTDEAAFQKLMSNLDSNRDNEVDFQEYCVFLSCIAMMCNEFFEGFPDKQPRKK
Sequence of Nonmuscle myosin IIA M32 1907-1938 (Homo sapiens) (P35579 1907-1938): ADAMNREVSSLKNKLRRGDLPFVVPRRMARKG

Kd: 3 µM
Substance: S100A4 (from UniProt P26447)
